Measured values from patent US8063008B2, “Enzymatic production of peracids using perhydrolytic enzymes” (E. I. du Pont de Nemours and Company, priority 2005, dated 2011).

Experiments:
Format in all cases: biochemical
[1] = Protease-catalyzed perhydrolysis of acetamide at pH 4.0 (Example 6); details: pH 4.0, 500 mM H2O2, 1 mg protease
Experimental: (§1) Into a 4-mL glass vial with stir bar was added 1 mg protease (Table 6) in 0.050 mL of 50 mM sodium acetate/acetic acid buffer (pH 4.0), 0.900 mL of an aqueous mixture containing either a) acetamide (278 mM) in 50 mM sodium acetate/acetic acid buffer (pH 4.0) or b) diacetamide (278 mM) in 50 mM sodium acetate/acetic acid buffer (pH 4.0), and 0.052 mL 30% hydrogen peroxide (500 mM final concentration). […] A portion of the filtered reaction samples was diluted 1:10 with dd water and analyzed for hydrogen peroxide, and the remaining portion of the sample was directly analyzed for peracid using the HPLC assay method (Table 7).

[2] = Protease-catalyzed perhydrolysis of acetamide at pH 6.5 (Example 9); details: pH 6.5, 500 mM H2O2, 1 mg protease
Experimental: as §1, with “potassium phosphate” for “sodium acetate/acetic acid”, “6.5),” for “4.0),”, “6.5)” for “4.0)”, “10).” for “7).”

[3] = Protease-catalyzed perhydrolysis of diacetamide at pH 6.5 (Example 9); details: pH 6.5, 500 mM H2O2, 1 mg protease
Experimental: as §1, with “potassium phosphate” for “sodium acetate/acetic acid”, “6.5),” for “4.0),”, “6.5)” for “4.0)”, “10).” for “7).”

[4] = Enzymatic perhydrolysis of triacetin using a combination of lipase and proteases (Proteinase K, Pronase) at pH 4.0 and 6.5 (Example 10); details: H2O2 500 mM, 1 mg lipase, 0.3 mg Proteinase K, 1.2 mg Pronase
Experimental: Reaction mixtures were prepared containing 1 mg lipase (ICR 101, ICR-110, or ICR-117, BioCatalytics, Pasadena, Calif.), 0.3 mg Proteinase K (T. album), and 1.2 mg of Pronase in 1.0 mL of 50 mM buffer (either sodium acetate/acetic acid buffer at pH 4.0, or potassium phosphate buffer at pH 6.5), additionally containing triacetin (250 mM) and hydrogen peroxide (500 mM). […] A portion of the filtered reaction samples was diluted 1:10 with dd water and analyzed for hydrogen peroxide, and the remaining portion of the sample was directly analyzed for peracid using the HPLC assay method (Table 11). Reactions were also run with lipase alone or protease(s) alone for comparison of peracetic acid concentrations produced without the combination of lipase and protease(s).

[5] = Protease-catalyzed perhydrolysis of diacetamide at pH 4.0 (Example 6); details: pH 4.0, 500 mM H2O2, 1 mg protease
Experimental: as §1

[6] = Protease-catalyzed perhydrolysis of triacetin at pH 4.0 (Example 7); details: pH 4.0, 500 mM H2O2, 1 mg protease
Experimental: as §1, with “triacetin” for “either a) acetamide (278 mM) in 50 mM sodium acetate/acetic acid buffer (pH 4.0) or b) diacetamide”, “8).” for “7).”

[7] = Protease-catalyzed perhydrolysis of triacetin at pH 6.5 (Example 8); details: pH 6.5, 500 mM H2O2, 1 mg protease
Experimental: The analytical procedure described by U. Karst et al. (Anal. Chem., 69 (17):3623-3627 (1997)) was employed, as described herein, for analysis of product mixtures containing peracid and hydrogen peroxide. Briefly, the concentration of peracetic acid (PAA) in analyzed samples ranged from 0.025 mM-10 mM, and the concentration of H2O2 ranged from 0.075 mM-3 mM. Reaction mixtures containing peracid and/or hydrogen peroxide were, if necessary prior to analysis, diluted to produce a concentration of peracid or peroxide in these ranges. […] At the end of 30 minutes, 0.100 mL of 10 mM N,N-diethyl-m-toluamide (DEET, HPLC external standard) was added and the resulting solution analyzed by HPLC: Supelco Discovery C8 10-cm column with pre-column, 10-μL injection, UV detection at 225 nm, solvent A: acetonitrile, solvent B: deionized water, 1 mL/min gradient as follows: […]
Into a 4-mL glass vial with stir bar was added 1 mg protease (Table 6) in 0.050 mL of 50 mM sodium phosphate buffer (pH 6.5), 0.900 mL of an aqueous mixture containing triacetin (278 mM) in 50 mM phosphate buffer (pH 6.5), and 0.052 mL 30% hydrogen peroxide (500 mM final concentration). […] A portion of the filtered reaction samples was diluted 1:10 with dd water and analyzed for hydrogen peroxide, and the remaining portion of the sample was directly analyzed for peracid using the HPLC assay method (Table 9).

[8] = Enzymatic perhydrolysis of triacetin using a combination of lipase and Alcalase at pH 4.0 and 6.5 (Example 22); details: H2O2 500 mM, 1 mg lipase, 20 μL Alcalase
Experimental: Reaction mixtures were prepared containing 1 mg lipase (A “Amano” 12 (Amano), Validase AN (Valley Research), or ICR-110 (BioCatalytics)), and 20 μL Alcalase® (Novozymes) in 1.0 mL of 50 mM buffer (either sodium acetate/acetic acid buffer at pH 4.0, or potassium phosphate buffer at pH 6.5), additionally containing triacetin (250 mM) and hydrogen peroxide (500 mM). […] A portion of the filtered reaction samples was diluted 1:10 with dd water and analyzed for hydrogen peroxide, and the remaining portion of the sample was directly analyzed for peracid using the HPLC assay method (Table 27). Reactions were also run with lipase alone or Alcalase® alone for comparison of peracetic acid concentrations produced without the combination of lipase and Alcalase®.

[9] = Enzymatic perhydrolysis of a mixture of diacetin (250 mM), triacetin (88 mM) and monoacetin (192 mM) using lipase and Alcalase at pH 4.0 and 6.5 (Example 23); details: 1 mg lipase, 20 μL Alcalase
Experimental: Reaction mixtures were prepared containing 1 mg lipase (A “Amano” 12 (Amano), Validase AN (Valley Research), or ICR-110 (BioCatalytics)), and 20 μL Alcalase® (Novozymes) in 1.0 mL of 50 mM buffer (either sodium acetate/acetic acid buffer at pH 4.0, or potassium phosphate buffer at pH 6.5), additionally containing a mixture of diacetin (250 mM), triacetin (88 mM) and monoacetin (192 mM) and hydrogen peroxide (500 mM). […] A portion of the filtered reaction samples was diluted 1:10 with dd water and analyzed for hydrogen peroxide, and the remaining portion of the sample was directly analyzed for peracid using the HPLC assay method (Table 28). Reactions were also run with lipase alone or Alcalase® alone for comparison of peracetic acid concentrations produced without the combination of lipase and Alcalase®.

B1: Proteinase K, T. album: Proteinase K, T. album, Novagen 70663; a fungal subtilisin from Tritirachium album (protein, UniProt P06873 106-384, looked up)
Proteinase K: AAQTNAPWGLARISSTSPGTSTYYYDESAGQGSCVYVIDTGIEASHPEFEGRAQMVKTYYYSSRDGNGHGTHCAGTVGSRTYGVAKKTQLFGVKVLDDNGSGQYSTIIAGMDFVASDKNNRNCPKGVVASLSLGGGYSSSVNSAAARLQSSGVMVAVAAGNNNADARNYSPASEPSVCTVGASDRYDRRSSFSNYGSVLDIFGPGTSILSTWIGGSTRSISGTSMATPHVAGLAAYLMTLGKTTAASACRYIADTANKGDLSNIPFGTVNLLAYNNYQA
- acetamide (250 mM) peracetic acid (ppm), 5 min [1]: 34 ppm
- acetamide (250 mM) peracetic acid (ppm), 30 min [1]: 49 ppm
- acetamide (250 mM) peracetic acid (ppm), 5 min [2]: 270 ppm
- acetamide (250 mM) peracetic acid (ppm), 30 min [2]: 214 ppm
- diacetamide (250 mM) peracetic acid (ppm), 5 min [3]: 104 ppm
- diacetamide (250 mM) peracetic acid (ppm), 30 min [3]: 100 ppm
- peracetic acid (ppm), 5 min ([4]; pH 4.0, triacetin 250 mM): 24 ppm
- peracetic acid (ppm), 30 min ([4]; pH 4.0, triacetin 250 mM): 7 ppm
- peracetic acid (ppm), 5 min ([4]; pH 6.5, triacetin 250 mM): 323 ppm
- peracetic acid (ppm), 30 min ([4]; pH 6.5, triacetin 250 mM): 669 ppm

B2: Papain: Papain, papaya latex, Sigma P3125 (protein, UniProt P00784 134-345, looked up)
Papain: IPEYVDWRQKGAVTPVKNQGSCGSCWAFSAVVTIEGIIKIRTGNLNEYSEQELLDCDRRSYGCNGGYPWSALQLVAQYGIHYRNTYPYEGVQRYCRSREKGPYAAKTDGVRQVQPYNEGALLYSIANQPVSVVLEAAGKDFQLYRGGIFVGPCGNKVDHAVAAVGYGPNYILIKNSWGTGWGENGYIRIKRGTGNSYGVCGLYTSSFYPVKN
- acetamide (250 mM) peracetic acid (ppm), 5 min [1]: 81 ppm
- acetamide (250 mM) peracetic acid (ppm), 30 min [1]: 105 ppm
- diacetamide (250 mM) peracetic acid (ppm), 5 min ([5]; 5 min): 135 ppm
- diacetamide (250 mM) peracetic acid (ppm), 30 min ([5]; 30 min): 172 ppm
- triacetin (250 mM) peracetic acid (ppm), 5 min ([6]; 5 min): 85 ppm
- triacetin (250 mM) peracetic acid (ppm), 30 min ([6]; 30 min): 48 ppm
- triacetin (250 mM) peracetic acid (ppm), 5 min ([7]; 5 min): 203 ppm
- triacetin (250 mM) peracetic acid (ppm), 30 min ([7]; 30 min): 142 ppm
- acetamide (250 mM) peracetic acid (ppm), 5 min [2]: 199 ppm
- acetamide (250 mM) peracetic acid (ppm), 30 min [2]: 157 ppm
- diacetamide (250 mM) peracetic acid (ppm), 5 min [3]: 342 ppm
- diacetamide (250 mM) peracetic acid (ppm), 30 min [3]: 187 ppm

B3: Alcalase ®: Novozymes; subtilisin Carlsberg or subtilisin A from Bacillus licheniformis (protein, UniProt P00780 106-379, looked up)
Subtilisin Carlsberg: AQTVPYGIPLIKADKVQAQGFKGANVKVAVLDTGIQASHPDLNVVGGASFVAGEAYNTDGNGHGTHVAGTVAALDNTTGVLGVAPSVSLYAVKVLNSSGSGSYSGIVSGIEWATTNGMDVINMSLGGASGSTAMKQAVDNAYAKGVVVVAAAGNSGSSGNTNTIGYPAKYDSVIAVGAVDSNSNRASFSSVGAELEVMAPGAGVYSTYPTNTYATLNGTSMASPHVAGAAALILSKHPNLSASQVRNRLSSTATYLGSSFYYGKGLINVEAAAQ
- peracetic acid (ppm), 5 min ([8]; pH 4.0, triacetin 250 mM): 0 ppm
- peracetic acid (ppm), 30 min ([8]; pH 4.0, triacetin 250 mM): 0 ppm
- peracetic acid (ppm), 5 min ([8]; pH 6.5, triacetin 250 mM): 180 ppm
- peracetic acid (ppm), 30 min ([8]; pH 6.5, triacetin 250 mM): 330 ppm
- peracetic acid (ppm), 5 min ([9]; pH 4.0, H2O2 500 mM): 0 ppm
- peracetic acid (ppm), 30 min ([9]; pH 4.0, H2O2 500 mM): 20 ppm
- peracetic acid (ppm), 5 min ([9]; pH 6.5, H2O2 500 mM): 110 ppm
- peracetic acid (ppm), 30 min ([9]; pH 6.5, H2O2 500 mM): 210 ppm
